Laboratory results from paper PMC7619190.

What was measured:
[1] = molecular target: human SRC SH2 domain (Gln147-Lys252) C188A (human) (UniProt P12931); test: ITC; peptide (400 uM) titrated into SRC SH2 (40 uM) in the cell, 25 C, MicroCal PEAQ-ITC Automated; SH2 domain pretreated with 1 mM TCEP (reducing conditions)
[2] = molecular target: human SRC SH2 domain (Gln147-Lys252) C188A (human) (UniProt P12931); test: ITC; peptide (400 uM) titrated into SRC SH2 (40 uM) in the cell, 25 C, MicroCal PEAQ-ITC Automated; SH2 domain pretreated with 0.1 mM PV (oxidised)

SRC C-terminal phosphopeptide (spanning pY530)
fold increase in affinity against SH2 WT [1]: 5 fold | fold lower affinity against reducing conditions [2]: 3.5 fold
